Measurements: patent US20220041650A1

Key:
[1] = target: CH505TF4.1 SOSIP Trimer (HV1301189, CH505TF.6R.SOSIP.664.v4.1) (HIV-1); assay: SPR antibody binding; drug substance of the 200 L scale run 1
[2] = target: CH505TF4.1 SOSIP Trimer (HV1301189, CH505TF.6R.SOSIP.664.v4.1) (HIV-1); assay: SPR antibody binding; drug substance of the 200 L scale run 2
[3] = target: CH505TF4.1 SOSIP Trimer (HV1301189, CH505TF.6R.SOSIP.664.v4.1) (HIV-1); assay: SPR antibody binding; drug substance of the 50 L scale run

Substance: PGT145 (antibody)
- Kd [1]: 11.3 nM
- Kd [2]: 11.7 nM
- Kd [3]: 11 nM

Substance: PGT151 (antibody)
- Kd [1]: 16 nM
- Kd [2]: 13.1 nM
- Kd [3]: 17.5 nM
